assay: soluble on expression in E. coli; label from the status in PepcDB or PDB records

Soluble on expression in E. coli, not soluble:
MGSDKIHHHHHHMIKRNAAKPVRVAPPMMEEQEVSTSTLQELLEKEETVSNLIFSKGREEGISKSYKSFKNCTFRNQTFSECKFRSSQLADIRFENCDLSNISFAESSLYRVEFIACKLLGTNLSETTMNHVLLHDCNASYINLAMSKMNQVRFSHCHFRNGSFNDCRFSSVAFDSCDLVEADFSHAPLRGIDLRTSRIGGITLNISDLKGAVITSLQAMDLLPLLGVIIED, MGSDKIHHHHHHMIKVALLHFGFEDYTIELANSLSKYVDLTLINPKKLSDVCGDAFDPSIRVVSFKKPRIRDPRNLLSMNAMMRIIKDIQPDVLHVQETNDPWYDWTLLLNKMPPLVTTIHDVFRHPGDKVAVFGSEYTRRIAFYRSQQLIVHTHQLKKILIEQFNLPEGRVNVIPHGELGSLYQHRGDRSNQPRDPNTLLFFGRIWPYKGLKYLLEAMPLIAECVPEVKLIIAGRGENIKEYFPNGYDENRYEIINRLIPLEEVSNLFQRSTVTVLPYIEASQSGVAALSYGMGTLVVASDVGGLSEIVQHKKDGLLVPPRDVRALADAIICLLSDRDLQQKMQTAALARCQQDLNWSNIAAQTVEVYQKTMKPIHQ, MGSDKIHHHHHHMILFAGDPHGSYSHLYPFIQEHANVSLIILGDLQLTTSDELDKLAQFCDLWFIHGNHDSKTVSAYEALWGTKWKSRNLHGKVVDIQGIKIAGLGGVFRGQIWMPPNKPLFFDHIHYCQYAPPEKIWRGGIPLRHRTSIFPSDIEALEKQKADILICHEAPKPHPLGFSVINNLATSMQVKHIFHGHHHESFDYTKRPNKNPFKITNVGFRSLCNINGNFLLIGIDDRE, MGSDKIHHHHHHMILMNNPGDKEVLRLLKQRMESVSQVEETVKEIIRRVKEEGDRALEEFLKRFEKHPVGIENLRVTEKEISEAQVEEEFVETIKIVIEDLKEFHRRQEERSFFFTTKGGSFLGEMVVPLESVGIYVPGGKVPYFSTLLMCAVPAIVAGVERIAVTTPPNENGGISPYILKTCEILGLKEIYRMGGAHAVAALTYGTETVKPVDKIVGPGGVFVTLAKKHVYGDVGIDSIAGPSEIAIVTDGSADLDLIAADFLSQAEHDENAMSVVITTSKEVFEKLPQVIERHLEALPEERRKTARISTENFGTIILTDSLKRAFEISNLIAPEHLEVLVENPFEPLGHIKNAGSVFLGKYTCESVGDYGAGPNHVLPTFRSARFSSGLRVSDFTKKIFITHLSEEDFRRKSELYSKMARWEGFEAHARAIDVRREKL, MGSDKIHHHHHHMILTKEKSLNAGPIYGTGEGVAHSKRWYVALVRMHHEKKVSEYLNKVGIENFVPVQKEIHQWSDRRKLVESVLLPMMVFVHADPKERMEVLNFTTVSRYMVMRGESSPAVIPDDQMARFRFMLDYSDETVCMNSSPLARGEKVQVIKGPLQGLVGELVNVDGKSKIAVRLNMLGCACVDMPIGYVEPIGEKN, MGSDKIHHHHHHMINAKNIRFSYPRQRSLFESLNLDLPKGSITGLLGRNGEGKTTLLKLLCGQLLRKDGNLTVLTEDPRHRSVKFLSKVFLLQEEVTCPNVSIRDYFRMITPFYPSYSPEVAQEIIIAFDLNWDMKLGKVSQGQKKKAVIALALSLRTPLLLMDEPTNGLDIPSKSAFRRLMARYITEEQTVIISTHQVRDLEQIIDRIVMMDKNAIVCNRSVAELSEQFAFRQVVPGDKPIYKEGSTMGEVGVYENTTGEETPFSMELFFNGMIAEREVFNRVLNR, MGSDKIHHHHHHMINREIAVKVQHVSKTFKLPTEATKSFRTTLVNRLRGIKGFTEQHVLKDINFDVYKGDFFGIVGRNGSGKSTLLKIISQIYVPEKGQVTVDGKMVSFIELGVGFNPELTGRENVYMNGAMLGFTKDEVDDMYNDIVDFAELHHFMNQKLKNYSSGMQVRLAFSVAIKAQGDVLILDEVLAVGDEAFQRKCNDYFMERKDSGKTTILVTHDMGAVKKYCNRAVLIEDGLVKAYGEPFDVANQYSVDNTETAEDAMNAEKISVSDIAKDLKVSLISNPRITPNDTITFEVSYEVLKDDFTYIAFSLTDIDRNIWVYNDNSLDYPTQGIGRKCISYQCQLSQLNDIKLKLEVTVRDKNGQMLLFSTAEQSPQIVIQRNDIDQDDLSALDSASGLYQRNGKWVFH, MGSDKIHHHHHHMINTALRLAAPEIEAFLQGRIIAAMPNKFITPGREFALCPSDASINLLPVEQYYRSSFLPIAQSAFAQLNIQGVLIQPQQMNLLIDEEQLKLPILAYETVLIKTWAKCELCQIINNTESFAALSQLTIWTTEALKEILRQKQNIFLAYLRVYELPKSIEVPIKSNSQFVALSQPLNVSEDKPVLKDRTFAQRKHQLEKLQPPLHPELEELQSAIASLSISQPAAKQLDDDIKVFLGWSSDKLTNPLDSDLPWIQNIAKVGNSSDGHTFEKLVRRGLLKLGFTGSGLNPDATGGAGGMDFYAEQPYPIVGECKATKTEKVTDGTPAQLLKIGMNHLGKFQYDNSIKLIVAAGELNFYALRTATENQMNIVSPETLQKLVELQAHYKNSINLLDLSGNKRE, MGSDKIHHHHHHMINYMIPKGFLCCGKHVGIKKRKLDLGVVYSEKLCSAAAVFTKNKFCGIPIIVGKENIKDNKLQSIVVTSGVANVATGEEGLKNTYRILNKLSCELNIKSENILPSSTGIIGKQLPIDCIITGINGIKSSLSKYNWEEFNRAIMTTDKELKIKSCKIGDATVLGIAKGSGMIEPNMATMLAYFFTDASIKAVELKGILKRAVDKSFNMISIDHDTSTSDTAAILANGYVGNVNLEVFEKTFTDMCIDMAKDIVRDGEGVSKLIEATVMGCSSFESAKVIAKSIINSPLVKIAIYGSDPNWGRIAMAIGKSFEDDVDPLKIEIAFNSNVIYDKGKIYEENFDCIERYLRDNNECKIQANLNVGDFAATVWGSDFTEDYIRINSYYTKRK, MGSDKIHHHHHHMIPEEIYKILRKQRYQIDGHTAVKLCGWVRKKMLEDKNCYKSKFYGIETHRCIQCTPSVIWCQQNCIFCWRVLPRDIGIDISQIKEPKWEEPEVVYEKILAMHKRIIMGYAGVLDRVGEKKFKEALEPKHVAISLSGEPTLYPYLDELIKIFHKNGFTTFVVSNGILTDVIEKIEPTQLYISLDAYDLDSYRRICGGKKEYWESILNTLDILKEKKRTCIRTTLIRGYNDDILKFVELYERADVHFIELKSYMHVGYSQKRLKKEDMLQHDEILKLAKMLDENSSYKLIDDSEDSRVALLQNENRKINPKL, MGSDKIHHHHHHMIQYKRCSEVSIDLVYEAFRDGFSDYIIKMEVSKEDFIKRFFGAEGNSLKHSFVALDGNKSVGVILGGIKDYENIKTMRCGTLAVHPNYRGIGVSQKLFELHKDEAIQNGCKQLFLEVIVGNDRAIRFYNKLGYEKVYDLSYYNLKDMTKIIHKECKGIEVKQLEFPAFKVEIQKWLHFHINWQNDMDYIEKTNHTFYGAYVDNDLKGSICINEQGKISFIFIDKEYRNRGIGSKLLQVARDELNLESLLISFPNNSLLEGFLKKTGFEKNSLAQYEMYVLL, MGSDKIHHHHHHMISSITSSIPKDVLYAAAEWYATLYDEDCSENDRQTWQRWLHEDETHRLAWQQVEQIHARFHAVDSQLASSVLSRRGEERRRMLKLLVIASVTGGVGFSLPWDSYAADYRTGTGETRELSIETGMTVWLNTDSALNQQGNPALSQPLTFQLIKGELMLDNQTAHAARLTTPHGDLAAAAYSCQLALRYTSAHSVLSVFSGEVLLQTAVPAAQRVTAGQQVIFTRDRCSEPAPVENFRQSWRKGLLVADSMPLGQLINEISRYHNGYFHVDSAVTNLRISGVFPLHETDRLLDAIVRTLPVKVSRRFSWWVDIRPS, MGSDKIHHHHHHMITAEECRTYKEFVDLYQSYLYPLLGARLSRMYSPKNKVIIDMGTGPGYLSIQLAKRTNAHVHAVDINPAMHEIAQEEAKKSGVSSLISFDLEDVHHLSYADQYADFIVSYSCLHHWEDVVKGLKECYRVLAPGGKIVILDTFNPQGSHLEIMRKQIKEPEYFRFVREAFEESYSFEDIHQFVQDAGIPNYSLETFHFLPEDFIESLDELEDAPLWEQNDQSTDHEIESVTWMLTIEKEKEGAL, MGSDKIHHHHHHMITIDALGQVCPIPVIRAKKALEGLGEAGGVVAVLVDNDISRQNLQKMAEGMGYQSEYQEKDNGVIEVTIVAGEGCAVETSGTPADSGLVVAIGRNTMGEGSEELGRILLKGFIYSLRELTPPPARLLFFNSGAYLTSKDSNSIEDLKAMAAQGTIIQTCGTCINYYGITEQLAVGQVANMYDIVTAMAEAKRLINI
